In series [1] the target is cyclohexylamine oxidase from Acinetobacter sp. YT-02 (Acinetobacter sp. YT-02). In words: SEC; gel filtration on Superose 6 Increase 10/300GL; 10 mM phosphate buffer, pH 7.4, 140 mM NaCl; calibrated with apoferritin (443 kDa), alcohol dehydrogenase (150 kDa), bovine albumin (66 kDa), carbonic anhydrase (29 kDa). Background: SEC sorts molecules by how far they enter the pores of the column.

Substrate in the series “purified protein”: NC1CCCCC1
Put plainly: purified protein. It is filed as biochemical, Acinetobacter sp. YT-02. Conditions: 50 °C, pH 7.0 sodium phosphate.

What is called stoichiometry N is the number of molecules, sites or subunits per partner or assembly. Usually Km stands for the concentration of substrate that gives half-maximal velocity. In general, Vmax refers to the rate approached at saturating substrate. Usually kcat stands for the maximal rate divided by the concentration of active sites. As usually defined, the kcat/Km is the turnover number divided by the Michaelis constant.

Turning to “cyclohexylamine oxidase from Acinetobacter sp. YT-02 (enzyme)”, in series [1], the stoichiometry N came to 2.

B1: CHAOYT–02 (Acinetobacter sp. YT-02) (protein)
chain: MSVNDNRESASYDADVIVVGAGPSGSYAAKLLHDRGISVKLVEAKDRVGGRTWSSKTEAQGGPIDFGGQWIGETHVLLPELGEELGLETVSSIKPGNDIFVFNGQVTVGEEDQAPASASWTAELTRSFELLDEAGARLGWEAPWASPAVEALDGMTVAQWLDENVSSDEVRMIHEVMVNILNGANTTEVSMAYWAYFVHQGEGIESLIGTRSGAQIAWFVGGMGQVTELIADRLGDNLHLNWPVTSIEQQDSGVVVSSGDRRLTAKYVILATPPSDASRMIFDQPLPAKRAQLQARAPMGRLAKIQVRYRDAFWQEENLSGAAFVCGDLAFWVFDGSKPSDSLATIVGFIGGKHLDLWHSFTPEEREARFIDMLVTNIGEKARDTVYYHETDWTEQPWTGGAPVTFMPTGLLSSSGSALRGSAGRIHFAGTEAAPMWSGYIEGALRAGKIAATDIIARLG
notes: full-length ORF of 460 residues, no signal peptide; pET-28b 6xHis tag and vector residues kept (53,534 Da with tag); E. coli BL21 (DE3); dimer about 91 kDa; FAD enzyme
With B1, in the series “purified protein”, the Km came out at 250 ± 20 µM, the Vmax was found to be 4300 µM/min, the turnover number (kcat) stood at 523 ± 10 s⁻¹ and the specificity constant (kcat/Km) is 2.08e+06 M⁻¹ s⁻¹.
